Assay results: US7884067B2, “Peptides derived from cadherin and methods of use thereof” (Mount Sinai School of Medicine of New York University, priority 2001, dated 2011)

B1: N-Cad/CTF2: chicken cytoplasmic domain of N-cadherin (N-Cad/CTF2) inserted into vector pECE, expressed in L cells (protein)
chain: KRRDKERQAKQLLIDPEDDVRDNILKYDEEGGGEEDQDYDLSQLQQPDTVEPDAIKPVGIRRLDERPIHAEPQYPVRSAAPHPGDIGDFINEGLKAADNDPTAPPYDSLLVFDYEGSGSTAGSLSSLNSSSSGGEQDYDYLNDWGPRFKKLADMYGGGDD

How the values were obtained:
A431 cells = test: Laser scanning confocal microscopy of ionomycin-induced cell-cell dissociation; format: cell-based, human; settings: 30 minutes pre-incubation with L-685,458, then ionomycin 45 minutes
Method: Immunoprecipitations (IPs), immunoblotting, immunofluorescence and confocal microscopy. For WB analysis of cell extracts, cells were washed with PBS and then solubilized in RIPA buffer. For IPs cells were solubilized in Hepes buffer (25 mM Hepes [pH 7.4], 150 mM NaCl, 1× Complete protease inhibitor cocktail, Roche) containing 1% digitonin (IPs with I-R222 and PI-R222 antibodies) or 1% Triton X-100 (IPs with β-catenin and desmoglein antibodies). Following centrifugation at 17,000×g for 10 min, supernatants (1 mg protein) were pre-cleared with protein A- or protein G-agarose (Pierce) for 2 hours. Supernatants were then incubated with antibodies overnight at 4° C. and treated for 2 hours with protein A-agarose (polyclonal antibodies) or with protein G-agarose (monoclonal antibodies). IPs were washed with Hepes buffer containing either 1% digitonin or 1% Triton X-100 and analyzed by SDS-PAGE. Immunofluorescence and confocal microscopy was performed as described by Georgakopoulos et al., (1999). Briefly, cells were plated on 22×22 mm collagen-coated glass coverslips, fixed in cold methanol for 10 min at −20° C. Following washing in TBS (25 mM Tris-HCl [pH 7.4], 150 mM NaCl), cells were treated with 10% goat serum in SuperBlock (Pierce) for 1 hour, incubated overnight with primary antibody (1:100), washed in TBS and then were incubated with species specific Alexa Fluor™ secondary antibody conjugates (Molecular Probes). Cells were washed with TBS, mounted with Prolong antifade kit (Molecular Probes), and photographed on a Leica confocal laser scanning microscope.
The PS1/γ-secretase role in the disassembly of CAJ was further examined using laser scanning confocal microscopy (LSCM). A431 cells were pre-incubated for 30 minutes in the absence or presence of L-685,458 and then treated for 45 minutes with ionomycin. Following the ionomycin-induced cell-cell dissociation, the distribution of PS1, E-cadherin, β-catenin and α-catenin was analyzed by LSCM using the constant detector setting. […]

CBP [1] = target: T1, CBP (Mus musculus, UniProt P45481); test: Nuclear/cytosolic fractionation of transfected L cells (Western blot); format: cell-based
T1 construct: a process that relies on endogenous CBP and CREB; endogenous in cells; host or cells: L cells transfected with vector or pN-Cad/CTF2
T1 sequence (P45481 whole entry): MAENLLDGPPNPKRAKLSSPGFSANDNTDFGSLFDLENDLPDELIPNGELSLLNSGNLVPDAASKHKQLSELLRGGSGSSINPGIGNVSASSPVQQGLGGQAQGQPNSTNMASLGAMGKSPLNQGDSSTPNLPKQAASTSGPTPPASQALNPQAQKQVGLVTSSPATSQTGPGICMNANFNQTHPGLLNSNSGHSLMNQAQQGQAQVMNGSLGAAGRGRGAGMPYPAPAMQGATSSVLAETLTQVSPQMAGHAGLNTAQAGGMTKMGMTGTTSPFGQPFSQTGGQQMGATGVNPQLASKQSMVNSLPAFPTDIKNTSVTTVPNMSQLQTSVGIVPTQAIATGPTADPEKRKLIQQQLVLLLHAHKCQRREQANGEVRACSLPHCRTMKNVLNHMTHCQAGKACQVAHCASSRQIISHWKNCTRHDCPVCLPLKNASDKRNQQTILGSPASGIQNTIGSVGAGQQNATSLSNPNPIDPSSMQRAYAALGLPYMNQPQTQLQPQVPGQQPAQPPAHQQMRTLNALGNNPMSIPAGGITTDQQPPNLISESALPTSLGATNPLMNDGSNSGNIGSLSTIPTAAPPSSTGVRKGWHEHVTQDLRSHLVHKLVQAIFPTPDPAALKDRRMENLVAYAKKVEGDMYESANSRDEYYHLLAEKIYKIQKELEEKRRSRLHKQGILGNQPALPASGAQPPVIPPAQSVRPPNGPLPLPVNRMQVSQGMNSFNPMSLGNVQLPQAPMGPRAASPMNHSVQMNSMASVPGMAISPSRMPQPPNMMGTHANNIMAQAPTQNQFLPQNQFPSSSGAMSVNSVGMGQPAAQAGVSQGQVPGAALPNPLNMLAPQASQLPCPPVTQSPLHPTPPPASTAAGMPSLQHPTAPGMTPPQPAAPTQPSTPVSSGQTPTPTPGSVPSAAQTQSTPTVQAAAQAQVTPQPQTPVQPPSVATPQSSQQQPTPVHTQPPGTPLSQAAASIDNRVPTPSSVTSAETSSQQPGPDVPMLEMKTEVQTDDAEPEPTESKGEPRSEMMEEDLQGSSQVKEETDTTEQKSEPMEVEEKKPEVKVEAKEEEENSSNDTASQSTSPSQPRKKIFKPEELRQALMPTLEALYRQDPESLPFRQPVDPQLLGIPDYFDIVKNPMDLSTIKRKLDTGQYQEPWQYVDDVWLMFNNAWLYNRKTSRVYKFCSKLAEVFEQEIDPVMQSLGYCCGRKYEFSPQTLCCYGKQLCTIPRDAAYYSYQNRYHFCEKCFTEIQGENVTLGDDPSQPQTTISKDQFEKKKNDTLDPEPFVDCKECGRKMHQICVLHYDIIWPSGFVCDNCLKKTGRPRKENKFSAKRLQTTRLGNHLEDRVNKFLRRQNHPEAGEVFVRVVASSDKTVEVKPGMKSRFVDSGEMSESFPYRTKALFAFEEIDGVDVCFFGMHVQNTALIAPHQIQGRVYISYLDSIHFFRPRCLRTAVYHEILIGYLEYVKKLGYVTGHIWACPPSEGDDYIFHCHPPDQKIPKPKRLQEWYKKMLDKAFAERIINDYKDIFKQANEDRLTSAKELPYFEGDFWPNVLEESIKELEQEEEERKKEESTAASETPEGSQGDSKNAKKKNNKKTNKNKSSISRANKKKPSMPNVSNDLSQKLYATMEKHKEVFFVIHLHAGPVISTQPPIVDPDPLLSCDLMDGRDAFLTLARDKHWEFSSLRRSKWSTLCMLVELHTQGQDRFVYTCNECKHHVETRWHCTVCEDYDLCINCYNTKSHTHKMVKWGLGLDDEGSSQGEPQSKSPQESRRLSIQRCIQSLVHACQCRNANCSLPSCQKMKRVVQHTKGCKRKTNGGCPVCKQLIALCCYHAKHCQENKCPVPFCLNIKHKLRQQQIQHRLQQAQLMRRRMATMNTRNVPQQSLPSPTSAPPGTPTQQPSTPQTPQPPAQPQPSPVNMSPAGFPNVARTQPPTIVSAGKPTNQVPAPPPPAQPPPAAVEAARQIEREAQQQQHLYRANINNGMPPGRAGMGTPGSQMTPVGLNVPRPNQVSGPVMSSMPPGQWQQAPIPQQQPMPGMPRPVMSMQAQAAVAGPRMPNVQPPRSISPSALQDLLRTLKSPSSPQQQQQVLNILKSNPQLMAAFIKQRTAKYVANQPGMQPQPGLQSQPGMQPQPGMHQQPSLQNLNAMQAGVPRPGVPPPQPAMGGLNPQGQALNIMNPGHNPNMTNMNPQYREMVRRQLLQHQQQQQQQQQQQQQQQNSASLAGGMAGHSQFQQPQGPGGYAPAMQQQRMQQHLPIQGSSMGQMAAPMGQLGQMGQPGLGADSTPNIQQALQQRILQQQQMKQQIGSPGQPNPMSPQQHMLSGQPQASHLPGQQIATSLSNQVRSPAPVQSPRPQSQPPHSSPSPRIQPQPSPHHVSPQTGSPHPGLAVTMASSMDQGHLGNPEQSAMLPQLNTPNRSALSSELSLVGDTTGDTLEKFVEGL
Method: Subcellular fractionation. Transfected cells were washed in PBS, placed into 1 ml of buffer A (20 mM Tris-HCl, pH 7.5, 0.25 M sucrose, 10 mM EGTA, 2 mM EDTA, Ix Complete protease inhibitor cocktail), and then passed through a 27 gauge needle 10 times. Obtained lysates were centrifuged at 500×g for 10 minutes and pellets (nuclear fraction) were washed twice with 1 ml of buffer A containing 0.1% Triton X-100 and solubilized by sonication in RIPA buffer. Supernatants were centrifuged at 120,000×g for 45 minutes at 4° C. to separate cytosolic and crude membrane fractions. A 50 μg protein aliquot from the nuclear and cytosolic fractions was analyzed on WBs.
To determine how N-Cad/CTF2 affects CREB-mediated transcription, the following experiments were performed. L cells transfected either with vector (vector) or pN-Cad/CTF2 (N-Cad/CTF2) plasmids were fractionated into nuclear and cytosolic fractions, and probed on WBs with anti-CBP (FIG. 11A, panel a), anti-N-cadherin (FIG. 11A, panel b), anti-β-tubulin (FIG. 11A, panel c) or anti-phosphorylated CREB (P-CREB; FIG. 11A, panel d) antibodies. Extract from pN-Cad/CTF2-transfected L cells was immunoprecipitated either with non-immune serum (NI) or with antibodies against CBP (CBP), β-tubulin (β-Tub), E-cadherin (C36) or N-cadherin (C32). Obtained IPs were probed with anti-CBP (FIG. 11B, upper panel), anti-N-cadherin (FIG. 11B, middle panel) or anti-β-tubulin (FIG. 11B, lower panel) antibodies. For reference, cell lysate was also probed (FIG. 11B, first lane). L cells transiently transfected with pN-Cad/CTF2 were analyzed by immunofluorescence staining. Cells were triple-labeled with DAPI (blue), anti-CBP (red) and anti-N-cadherin (C32; green) antibodies. Nuclear extract from pN-Cad/CTF2-transfected L cells were incubated with biotinylated double-stranded DNA probes containing binding sequence for either CREB (FIG. 11C, left panel) or MEF-1 (FIG. 11C, right panel). […]

CBP [2] = target: T1, CBP; test: Co-immunoprecipitation in pN-Cad/CTF2-transfected L cells; format: binding; settings: FIG. 11B
Method: Immunoprecipitations (IPs), immunoblotting and immunofluorescence. IPs were performed as described by Marambaud et al. (2002) EMBO J. 21: 1948-1956 in 4° C. HEPES buffer (25 mM HEPES, pH 7.4, 150 mM NaCl, 1× Complete protease inhibitor cocktail, Roche) containing 0.5% Nonidet P40 (NP40). For western blot (WB) analysis, cells were solubilized in 4° C. RIPA buffer (50 mM Tris-HCl, pH 8, 150 mM NaCl, 0.1% SDS, 1% NP-40, 0.5% sodium deoxycholate, 1× Complete protease inhibitor cocktail) as described by Marambaud et al. (2002). Immunofluorescence was performed as described by Georgakopoulos et al. (1999) with the following modifications: to visualize nuclei, cells were treated for 5 minutes with 4′,6-diamidino-2-phenylndole (DAPI, 1:5000; Sigma). Fluorescence microscopy and digital image acquisition were carried out using an Axioskop2 microscope (Zeizz).
To determine how N-Cad/CTF2 affects CREB-mediated transcription, the following experiments were performed. L cells transfected either with vector (vector) or pN-Cad/CTF2 (N-Cad/CTF2) plasmids were fractionated into nuclear and cytosolic fractions, and probed on WBs with anti-CBP (FIG. 11A, panel a), anti-N-cadherin (FIG. 11A, panel b), anti-β-tubulin (FIG. 11A, panel c) or anti-phosphorylated CREB (P-CREB; FIG. 11A, panel d) antibodies. […] L cells transiently transfected with pN-Cad/CTF2 were analyzed by immunofluorescence staining. […]

Molecule	loss of cell surface staining of all epitopes (A431 cells)	change of CREB phosphorylation (CBP [1]; N-Cad/CTF2 overexpression, FIG. 11A panel d)	localization of phosphorylated CREB (CBP [1]; transfection with N-Cad/CTF2, FIG. 11A panel d)	nuclear and cytosolic CBP (CBP [1]; transfection with N-Cad/CTF2 vs vector, FIG. 11A)	co-immunoprecipitation of N-Cad/CTF2 with CBP (CBP [2])
CC(C)C[C@H](NC(=O)[C@H](Cc1ccccc1)C[C@@H](O)[C@H](Cc1ccccc1)NC(=O)OC(C)(C)C)C(=O)N[C@@H](Cc1ccccc1)C(N)=O [L-685,458]	significantly delayed	–	–	–	–
B1	–	not detected	no effects	nuclear CBP decreased with a concomitant increase in cytosolic CBP	co-immunoprecipitates with CBP
